Measurements: publication PMC2791442

Experiments:
Assay in all cases: EMSA
Conditions in all cases: EMSA: 200 ng protein, 5 ng 3'-biotin-labeled promoter DNA, 6% DNA retardation gel, 100 V at 4 C; binding buffer, salt and pH not stated
[1] = biological target: MqsR;MqsA-F (Escherichia coli;Escherichia coli) (UniProt Q46865+Q46864)
[2] = biological target: T1, MqsA-F (Escherichia coli) (UniProt Q46864)
T1 sequence: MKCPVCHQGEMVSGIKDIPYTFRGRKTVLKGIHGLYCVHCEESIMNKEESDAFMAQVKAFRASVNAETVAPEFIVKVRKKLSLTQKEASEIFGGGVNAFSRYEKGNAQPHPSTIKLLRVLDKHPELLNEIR

[3] = biological target: T2, MqsA-N (Escherichia coli) (UniProt Q46864)
T2 sequence: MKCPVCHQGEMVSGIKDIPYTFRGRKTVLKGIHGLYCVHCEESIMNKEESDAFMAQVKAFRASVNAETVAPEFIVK

[4] = biological target: T3, MqsA-C (Escherichia coli) (UniProt Q46864)
T3 sequence: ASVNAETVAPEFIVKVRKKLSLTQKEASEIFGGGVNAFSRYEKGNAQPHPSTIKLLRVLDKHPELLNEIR

[5] = biological target: MqsR;MqsA-N (Escherichia coli;Escherichia coli) (UniProt Q46865+Q46864)
MqsR;MqsA-N (Escherichia coli;Escherichia coli), sequence (Q46865 whole entry, one chain of several): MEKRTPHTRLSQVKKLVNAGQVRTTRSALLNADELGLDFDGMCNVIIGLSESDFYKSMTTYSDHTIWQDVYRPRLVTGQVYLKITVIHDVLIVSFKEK

MqsR;MqsA-F (Escherichia coli;Escherichia coli), sequence (Q46865 whole entry, one chain of several): as above

| Sequence | binding [1] | binding [2] | binding [3] | binding [4] | binding [5] |
| --- | --- | --- | --- | --- | --- |
| CGGGTTAGTGCTAGTATGAAAAAGTGAGTCCTGTCCCGCTTCCTTCCTAATTGTAATTTTTCGTAATAATGCGATGAAAACCTGCAAAGAGTGGCTTATAGTTAAGCTAACAAACGAGAGGGCAAGTCCAGGTCAGTAAGTTTTTTCCATCCCGAAAGGTGTCCGTTAGTTCAACCGCTAAGAAGGGGACGCGTTATGGATGAATACTCACCCAAAAGACATGATATCGCACAGCTTAAGT (double strand) [PtomB] | no binding | no binding | – | – | – |
| CAGTCATCCGGTATAGTTCTTCATAATCTCTGCAAAATCATCGTGTTGTAATATTCTCTCATCACTCTCCATCAAATTTTCTTTTTTTCTCCATAATTGGCGCAAAAGTGTTTTTTACACTTTCATTGTTTTACCGTTGCTCTGATTAATTGACGCTAAAGTCAGTAAAGTTAATCTCGTCAACACGGCACGCTACTTAAGAAAGCCGTAATAAATAACTGAAAGGAAGGATATAGAATATGCGTAAATTAACTGCACTGTTTGTTGCC (double strand) [Pspy] | – | binds | – | – | – |
| CCTGCAGAGTCAAACTGACATGTTTCATTTTTCCCGTTCCAGGCATTTTAATTCCTTCGCGTGTTTTCTGTCCAACCCTGCCTGCATGGCAGAAGGAATTCACCTGGTGTATTAAAGTGAATAATCATAAACCACTCACCTTTGTTGTTATTAGCAGCAGAACAATGATGTGGTTAGTTAATTAAAGCTGAAAATAAGCTTTTTGCCTGGATTTTTATGGCGGCTTACGCCGCCGTTGAAACTTTAATCATCACCCGCCACGCGGATCACCACTTTGC (double strand) [PmcbR] | – | binds | – | – | – |
| CGTGTATGTGGTGTGCGTTTTTCCATAACCCCCGCCTCCCTGTTACTTTAGTTATAACCTAAAAGGTTAATTACAGCAATGAAAAAGCACCTAAAAGGTTAGTTAGATGTACGGAGATAGTGACCACACAAAACGTATTCTTTAAGGAAAGTGATTGACCATATAAGAAAGTGGCGCATTAGTAGCGCCAGTTTGAAGCAGGAATTTATAAGGGAAGCTGGAGTCAGGCATCAC (double strand) [PmqsR] | binds | binds | no binding | binds | no binding |
